Consider two molecules from patent publication US20170071208A1, “COMPOSITIONS FOR MOSQUITO CONTROL AND USES OF SAME” (Forrest Innovations Ltd., priority 2014, published 2017).

Series [1] concerns Aedes aegypti female mosquitoes, Rio de Janeiro strain. Description: CDC bottle bioassay with deltamethrin, insecticide-resistant Rio de Janeiro strain. Type of series: in vivo. As for the experimental part:
(§1) FIGS. 5A-C are graphs illustrating the dose-response curves for 3- to 5-day-old Aedes aegypti female mosquitoes on insecticide-susceptible Rockefeller strain (FIG. 5A) and on insecticide-resistant Rio de Janeiro strain (FIG. 5B). Mosquitoes were exposed to different concentrations of deltamethrin in 250-mL glass bottles for up to 24 hours and the percentage of mortality for each time point is shown. FIG. 5C, comparison of the mortality rates of female mosquitoes from Rockefeller (Rock) and Rio de Janeiro (RJ) strains exposed to 2 μg/mL of deltamethrin for different time-points. Data represent mean values of three replicates with standard deviation.
(§2) Mosquitoes were taken from an Ae. aegypti colony of the Rockefeller strain or from a mosquito field population of Ae. aegypti isolated from urban area of Rio de Janeiro, Brazil. Both lineages were reared continuously in the laboratory at 28° C. and 70-80% relative humidity. Adult mosquitoes were maintained in a 10% sucrose solution, and the adult females were fed with sheep blood for egg laying. The larvae were reared on dog/cat food unless stated otherwise.
(§3) Bottles were prepared following the Brogdon and McAllister (1998) protocol [Brogdon and McAllister (1998) Emerg Infect Dis 4:605-613]. […] At 15, 30 and 45 min intervals, the number of live and dead mosquitoes in each bottle was recorded. […]

In series [2] the test system is Aedes aegypti female mosquitoes, Rockefeller strain. The series is described as follows: CDC bottle bioassay with deltamethrin, insecticide-susceptible Rockefeller strain. The format is in vivo. To be noted: diagnostic dosage 2 μg/mL of deltamethrin; Rockefeller strain adult females. Here is the method:
as §1, §2, §3

The test system of series [3] is Ae. aegypti Rockefeller strain. The series is described as follows: Egg hatching rate after larval dsRNA soaking plus feeding. To be noted: larvae soaked 24 h in 0.5 μg/μL dsRNA, fed twice with agarose plug containing dsRNA; vs water control. Type of series: in vivo, Aedes aegypti. Here is the method:
FIG. 12 is a flowchart illustration depicting introduction of dsRNA into mosquito larvae via soaking with different doses of “naked” dsRNA plus additional larvae feeding with food-containing dsRNA. Step a) 100 larvae from A. aegypti Rockefeller strain (3rd instar) were soaked for 24 hours with the respective dsRNAs (concentration range from 0.02-0.5 μg/μL) or only in water and were then fed 2 times with food plus agarose 2% containing dsRNA until they reach adult stage (Step b). Step c) The adults arising were allowed to copulate for 3-5 days. Step d) mosquitoes were fed with defibrinated sheep blood. Step e) after blood feeding 15 fully-engorged females were transferred into 3 small cages to be assayed for oviposition. Step f) the total number of laid eggs and the percentage of hatched eggs were counted. […] (FIG. 13A) The total number of laid eggs and the percentage of hatched eggs were counted (FIG. 13B). […]
(§4) Five days after the blood meal, an ovipositon cup was place inside each cage containing 15 females to allow the females to lay their eggs. […] The number of eggs laid was counted and used to check the viability and egg hatching rate.
To check the viability of the eggs the oviposition paper were kept to dry and embrionate for a period minimum of 5 days. […] The hatching rate (HR) for each treatment were calculated as follow: HR=total number of hatched larvae/total number of eggs oviposited). […]

Series [4] relates to Ae. aegypti Rockefeller strain. The series is described as follows: Oviposition assay after larval dsRNA soaking plus feeding. Type of series: in vivo, Aedes aegypti. Particulars: larvae soaked 24 h in 0.5 μg/μL dsRNA, fed twice with agarose plug containing dsRNA; 15 engorged females per cage; vs water control. As for the experimental part:
FIG. 12 is a flowchart illustration depicting introduction of dsRNA into mosquito larvae via soaking with different doses of “naked” dsRNA plus additional larvae feeding with food-containing dsRNA. Step a) 100 larvae from A. aegypti Rockefeller strain (3rd instar) were soaked for 24 hours with the respective dsRNAs (concentration range from 0.02-0.5 μg/μL) or only in water and were then fed 2 times with food plus agarose 2% containing dsRNA until they reach adult stage (Step b). Step c) The adults arising were allowed to copulate for 3-5 days. Step d) mosquitoes were fed with defibrinated sheep blood. Step e) after blood feeding 15 fully-engorged females were transferred into 3 small cages to be assayed for oviposition. Step f) the total number of laid eggs and the percentage of hatched eggs were counted. FIGS. 13A-B are graphs illustrating larvae from Ae. aegypti Rockefeller strain (3rd instar) soaked for 24 hours in 0.5 μg/μL of Aubergine (Aub) or Argonaute-3 (Ago) dsRNAs or water only. […] (FIG. 13A) The total number of laid eggs and the percentage of hatched eggs were counted (FIG. 13B). […]
as §4

Series [5] deals with Argonaute-3 (AAEL007823) mRNA. The series is described as follows: qPCR analysis of Ago-3 mRNA expression after dsRNA treatment. Particulars: vs water; for Ago3 mRNA levels: larvae soaked 24 h in dsRNA, 24 and 48 hours after the end of dsRNA treatment. Type of series: in vivo, Aedes aegypti. As for the experimental part: Third instar larvae were treated (in groups of 100 larvae) in a final volume of 3 mL of dsRNA solution in autoclaved water (0.5 μg/μL for sodium channel (AAEL008297), PgP (AAEL010379) and Ago3 (AAEL007823) dsRNA, or 0.1 μg/μL for CYP9J26 (JF924909.1). The control group was kept in 3 ml sterile water only. Larvae were soaked in the dsRNA solutions for 24 hr at 27° C., and then transferred into new containers (300 larvae/1500 mL of chlorine-free tap water), which were also maintained at 27° C., and were provided 6 mg/100 mL lab dog/cat diet (Purina Mills) suspended in water as a source of food on a daily basis. As pupae developed, they were transferred to individual vials to await eclosion and sex sorting. For bioassays purpose only females up to five days old were used. See Flowchart 1, FIG. 1 for detailed explanation of this experiment.
Total RNA was extracted from groups of five Ae. aegypti fourth instar larvae and early adult male/female Ae. aegypti, using TRIzol (Invitrogen, Carlsbad, Calif., USA) according to the manufacturer's instructions. RNA was treated with amplification grade DNase I (Invitrogen) and 1 μg was used to synthesize cDNA using a First Strand cDNA Synthesis kit (Invitrogen). PCR products were purified using a QIAquick PCR purification kit (Qiagen). The MEGAscript RNAi kit (Ambion) was then used for in vitro transcription and purification of dsRNAs. See Flowchart 4, FIG. 4 for detailed explanation production off dsRNA.
Approximately 1000 ng first-strand cDNA obtained as described previously was used as template. The qPCR reactions were performed using SYBR® Green PCR Master Mix (Applied Biosystems) following the manufacturer's instructions. […] Raw quantification cycle (Cq) values normalized against those of the tubulin and S7 standards were then used to calculate the relative expression levels in samples using the 2^−ΔΔct method [Livak & Schmittgen, (2001) Methods. […]

With `CC1(C)[C@H](C(=O)O[C@H](C#N)c2cccc(Oc3ccccc3)c2)[C@@H]1C=C(Br)Br` [deltamethrin], the “mosquitoes in the population resistant to deltamethrin” value in series [1] (Rio de Janeiro (RJ) strain, at diagnostic dosage 2 μg/mL) is 36.05%. In series [1] (diagnostic dosage 2 μg/mL of deltamethrin, Rio de Janeiro strain adult females), the “mosquitoes killed (mortality)” value is 63.95%. Further, the “mosquitoes dead (mortality)” value in series [2] is reported as 100%.

B1: Ago3: dsRNA targeting Argonaute-3 (AAEL007823), Example 1, SEQ ID NO: 1823 (nucleic acid)
chain: CCCCGTCGACGGCCACGAAGTTACGATCAAGATCATTTACAAGCGCAAACAGCGAATGAGCGAGAACATTCAATTCTACAACATTCTCTTCCAACGCATTATGAAAGTCCTGAAGATGGTCGAGATGGGTCGTAAGAACTTTGACCCCTCGGCCCCGAAACTGATTCCGCAGCATCGTCTGGAGATCTGGCCGGGATACGTTAGCGCTGTGGACGAATATGAGGGCGGCTTGATGTTGAATCTCGACGTGTCCCATCGTGTGCTGCTCCAGACGACGGTTTTGGATCACATCCGAACGCTGGCAAGGGCCAATCCCCAAGATTACAAAAACATGGCCACCAAATCGCTGCTGGGAGCCGTTATATTGACCCGA
modifications: double stranded RNA
On to B1, for which the “number of hatched eggs (hatchability)” value in series [3] is on record as 50%. The “oviposition rate (total number of laid eggs)” value in series [4] is recorded as “no difference”. Besides, in series [5] (adult mosquitoes soaked with dsRNA as larvae), the “Ago3 mRNA expression” value is “reached normal levels”. The results for the “Ago3 mRNA levels” value in series [5] and in series [5] (listed as dsRNA against Ago3) were “decreased mRNA levels” and “induce gene silencing”, respectively.
